# T1: Mlp1 (Tetrahymena thermophila, UniProt Q23RK6 1-340)
# T1 sequence: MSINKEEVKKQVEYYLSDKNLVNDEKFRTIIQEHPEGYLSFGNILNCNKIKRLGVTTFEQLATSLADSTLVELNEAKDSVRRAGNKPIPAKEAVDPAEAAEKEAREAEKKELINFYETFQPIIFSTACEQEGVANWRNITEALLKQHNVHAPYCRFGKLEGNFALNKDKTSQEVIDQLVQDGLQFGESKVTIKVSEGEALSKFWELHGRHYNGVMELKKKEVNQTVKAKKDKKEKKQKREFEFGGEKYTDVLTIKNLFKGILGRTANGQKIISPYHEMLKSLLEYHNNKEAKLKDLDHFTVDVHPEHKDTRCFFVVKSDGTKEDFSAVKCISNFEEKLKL
# T2: hLa (Homo sapiens, UniProt P05455 1-408)
# T2 sequence: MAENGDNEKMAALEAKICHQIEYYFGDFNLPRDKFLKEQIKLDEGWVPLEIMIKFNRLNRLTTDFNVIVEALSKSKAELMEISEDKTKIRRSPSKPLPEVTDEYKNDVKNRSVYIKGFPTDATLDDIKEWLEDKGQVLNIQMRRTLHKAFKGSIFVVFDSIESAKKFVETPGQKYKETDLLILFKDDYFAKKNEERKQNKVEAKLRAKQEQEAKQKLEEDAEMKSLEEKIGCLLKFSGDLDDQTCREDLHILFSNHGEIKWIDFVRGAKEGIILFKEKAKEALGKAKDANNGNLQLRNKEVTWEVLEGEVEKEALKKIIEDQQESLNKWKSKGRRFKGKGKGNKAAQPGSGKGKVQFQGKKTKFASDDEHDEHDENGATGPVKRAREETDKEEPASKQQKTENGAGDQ
# T3: Mlp1 95-250 (Tetrahymena thermophila, UniProt Q23RK6 95-250)
# T3 sequence: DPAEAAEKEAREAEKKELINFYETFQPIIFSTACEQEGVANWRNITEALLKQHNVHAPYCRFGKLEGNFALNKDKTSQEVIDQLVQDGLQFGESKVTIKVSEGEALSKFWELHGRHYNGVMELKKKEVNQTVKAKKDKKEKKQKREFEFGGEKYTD
# T4: Mlp1 1-95 (Tetrahymena thermophila, UniProt Q23RK6 1-95)
# T4 sequence: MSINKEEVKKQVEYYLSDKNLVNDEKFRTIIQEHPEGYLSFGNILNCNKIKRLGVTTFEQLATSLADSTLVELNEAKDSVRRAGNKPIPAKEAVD
# T5: Mlp1 Q11A/Y14A (Tetrahymena thermophila, UniProt Q23RK6 1-340, Q11A;Y14A)
# T5 sequence: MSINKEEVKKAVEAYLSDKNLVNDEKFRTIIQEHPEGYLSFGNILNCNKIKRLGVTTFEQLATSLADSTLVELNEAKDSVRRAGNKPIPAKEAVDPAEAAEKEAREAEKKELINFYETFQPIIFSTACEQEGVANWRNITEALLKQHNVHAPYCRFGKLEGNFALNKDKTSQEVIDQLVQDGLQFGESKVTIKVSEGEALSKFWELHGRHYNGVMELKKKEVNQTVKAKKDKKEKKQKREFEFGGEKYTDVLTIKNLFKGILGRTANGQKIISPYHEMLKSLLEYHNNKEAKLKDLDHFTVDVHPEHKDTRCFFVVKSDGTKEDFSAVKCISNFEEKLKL
# T6: Mlp1 1-250 (Tetrahymena thermophila, UniProt Q23RK6 1-250)
# T6 sequence: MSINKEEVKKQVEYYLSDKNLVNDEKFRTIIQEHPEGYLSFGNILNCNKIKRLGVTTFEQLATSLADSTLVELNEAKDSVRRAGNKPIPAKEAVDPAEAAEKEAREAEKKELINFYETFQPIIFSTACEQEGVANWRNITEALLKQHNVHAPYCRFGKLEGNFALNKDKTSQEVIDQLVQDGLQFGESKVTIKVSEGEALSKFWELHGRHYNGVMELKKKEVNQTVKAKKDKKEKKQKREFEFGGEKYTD
# Experiments:
# Mlp1 [1] = molecular target: T1, Mlp1; assay: EMSA; 20 mM Tris-HCl pH 7.4, 100 mM KCl, 1 mM EDTA, 5 mM beta-mercaptoethanol, 10% glycerol; ~0.1 nM RNA; 30 min at 30 C; 8% native PAGE at 4 C; conditions: protein: recombinant, tags: N-terminal 6xHis (pET28a)
# hLa = molecular target: T2, hLa; assay: competition; EMSA: 20 mM Tris-HCl pH 7.4, 100 mM KCl, 1 mM EDTA, 5 mM beta-mercaptoethanol, 10% glycerol; ~0.1 nM RNA refolded from 95 C; 30 min at 30 C; 8% native PAGE at 4 C; conditions: protein: recombinant; tags: 6xHis (encoded in reverse primer, pET28a); label: none
# Mlp1 95-250 = molecular target: T3, Mlp1 95-250; assay: EMSA; EMSA: 20 mM Tris-HCl pH 7.4, 100 mM KCl, 1 mM EDTA, 5 mM beta-mercaptoethanol, 10% glycerol; ~0.1 nM RNA refolded from 95 C; 30 min at 30 C; 8% native PAGE at 4 C; conditions: protein: recombinant; tags: N-terminal 6xHis (pET28a); label: 32P
# Mlp1 1-95 = molecular target: T4, Mlp1 1-95; assay: as above; conditions: protein: recombinant; tags: N-terminal 6xHis (pET28a); label: 32P
# Mlp1 [2] = molecular target: T1, Mlp1; assay: competition; EMSA: 20 mM Tris-HCl pH 7.4, 100 mM KCl, 1 mM EDTA, 5 mM beta-mercaptoethanol, 10% glycerol; ~0.1 nM RNA refolded from 95 C; 30 min at 30 C; 8% native PAGE at 4 C; conditions: protein: recombinant; tags: N-terminal 6xHis (pET28a); label: none
# Mlp1 Q11A/Y14A = molecular target: T5, Mlp1 Q11A/Y14A; assay: EMSA; EMSA: 20 mM Tris-HCl pH 7.4, 100 mM KCl, 1 mM EDTA, 5 mM beta-mercaptoethanol, 10% glycerol; ~0.1 nM RNA refolded from 95 C; 30 min at 30 C; 8% native PAGE at 4 C; conditions: protein: recombinant; tags: N-terminal 6xHis (pET28a)
# Mlp1 [3] = molecular target: T1, Mlp1; assay: as above; conditions: protein: recombinant, tags: N-terminal 6xHis (pET28a)
# Mlp1 1-250 = molecular target: T6, Mlp1 1-250; assay: as above; conditions: protein: recombinant; tags: N-terminal 6xHis (pET28a)
# [4] = label: 32P-UTP body label, tRNA fold
binder,measurement,setting,value
mature tRNA GlnUUA (structured_RNA) RNA: GGUUCCAUAGUAUAGUGGUUAGUACUGGGGACUUUAAAUCCCUUGACCUGGGUUCGAAUCCCAGUGGGACCU,Kd,Mlp1 [1]; [4],801 ± 62 nM
pre-tRNA GlnUUA 5' 3' (structured_RNA) RNA: GCAUGUCCGGUUCCAUAGUAUAGUGGUUAGUACUGGGGACUUUAAAUCCCUUGACCUGGGUUCGAAUCCCAGUGGGACCUGCUUUUU,Kd,Mlp1 [1]; [4],687 ± 44 nM
mature tRNA LeuAAG (structured_RNA) RNA: GAUGAAGUGGCCGAGCGGUCUAAGGCGGUAGAUUAAGGCUCUAUUCCGAAAGGGCGCGAGUUCGAAUCUCGCCUUCAUCA,Kd,Mlp1 [1]; tRNA fold,831 ± 33 nM
pre-tRNA LeuAAG 5' 3' (structured_RNA) RNA: GAGCGAAGAUGAAGUGGCCGAGCGGUCUAAGGCGGUAGAUUAAGGCUCUAUUCCGAAAGGGCGCGAGUUCGAAUCUCGCCUUCAUCAGAUUUUU,Kd,Mlp1 [1]; tRNA fold,586 ± 15 nM
CUGCUGCCCC (ssRNA) [4C],binding result,hLa,no binding
CUGCUGUUUU (ssRNA) [uridylate RNA of Supplementary Fig. S4b],binding result,Mlp1 95-250,no binding
same,binding result,Mlp1 1-95,no binding
pre-tRNA GlnUUA 5'-leader only (structured_RNA) RNA: GCAUGUCCGGUUCCAUAGUAUAGUGGUUAGUACUGGGGACUUUAAAUCCCUUGACCUGGGUUCGAAUCCCAGUGGGACCU,Kd,Mlp1 [1]; label: 32P-UTP body label,804 ± 16 nM
pre-tRNA LeuAAG 5'-leader only (+5'PPP) (structured_RNA) RNA: GAGCGAAGAUGAAGUGGCCGAGCGGUCUAAGGCGGUAGAUUAAGGCUCUAUUCCGAAAGGGCGCGAGUUCGAAUCUCGCCUUCAUCA,Kd,Mlp1 [1]; tRNA fold,714 ± 21 nM
CUGCUGUUUC (ssRNA) [U-1C],binding result,Mlp1 [2],binds
CUGCUGUUUU (ssRNA) [4U (CUGCUGUUUU-3'OH)],binding result,Mlp1 Q11A/Y14A,no binding
same,binding result,Mlp1 [3],binds
same,binding result,Mlp1 1-250,binds
pre-tRNA GlnUUA 3'-trailer only (structured_RNA) RNA: GGUUCCAUAGUAUAGUGGUUAGUACUGGGGACUUUAAAUCCCUUGACCUGGGUUCGAAUCCCAGUGGGACCUGCUUUUU,Kd,Mlp1 [1]; label: 32P-UTP body label,740 ± 40 nM
pre-tRNA LeuAAG 3'-trailer only (structured_RNA) RNA: GAUGAAGUGGCCGAGCGGUCUAAGGCGGUAGAUUAAGGCUCUAUUCCGAAAGGGCGCGAGUUCGAAUCUCGCCUUCAUCAGAUUUUU,Kd,Mlp1 [1]; label: 32P-UTP body label,658 ± 36 nM
CUGCUGUCUU (ssRNA) [U-3C],binding result,Mlp1 [2],binds
CCCCCCCCCC (ssRNA) [C10],binding result,Mlp1 [3]; label: 32P,no binding
CUGCUGUUCU (ssRNA) [U-2C],binding result,Mlp1 [2],binds
